Experimental data as given in the supplement of paper PMC9170038.

How the values were obtained:
[1] = test system: MS2 coat protein; test: apparent KD of MS2 coat protein; higher = weaker reporter binding; conditions: Eterna round: R107
Procedure: (§1)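 RNA-MaP round R107: designed RNA switches with theophylline, tryptophan, arginine or FMN aptamers are transcribed on-chip within common flanks. They are titrated with SNAP-549-labelled MS2 coat protein in RNA-MaP buffer (100 mM Tris pH 7.5, 80 mM KCl, 4 mM MgCl2), without ligand or with the indicated ligand. Median apparent KD per design.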

[2] = test system: K4 kissing-loop RNA reporter; test: apparent KD of K4 kissing-loop reporter; higher = weaker reporter binding; conditions: Eterna round: R107;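 also: bound reporter read as fluorescence of individual clusters on recovered sequencing chips by microscopy, with normalized cluster intensities fitted with a binding model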
Procedure: as §1, with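 “a labelled K4 kissing-loop RNA reporter” for “SNAP-549-labelled MS2 coat protein”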

[3] = input ligand: theophylline 20 uM
[4] = input ligand: theophylline 2 mM
[5] = input ligand: tryptophan 2.4 mM

Sequence | apparent KD of MS2 coat protein ([1]; input ligand: arginine 13.2 mM) [µM] | apparent KD of MS2 coat protein ([1]; input ligand: none) [µM] | apparent KD of MS2 coat protein [1, 3] [µM] | apparent KD of MS2 coat protein [1, 4] [µM] | apparent KD of MS2 coat protein [1, 5] [µM] | apparent KD of K4 kissing-loop reporter ([2]; input ligand: FMN 200 uM) [µM] | apparent KD of K4 kissing-loop reporter ([2]; input ligand: arginine 13.2 mM) [µM] | apparent KD of K4 kissing-loop reporter ([2]; input ligand: none) [µM] | apparent KD of K4 kissing-loop reporter [2, 3] [µM] | apparent KD of K4 kissing-loop reporter [2, 5] [µM]
GGACUAACCAGAAGGAGCGACACGCAGAAACUGCAAAAUCCUCCACACGAGGAUCACCCGUGUCAGGUAGGUCGCUGGUUAGUCG [ArgXB 16 #Zipper #MS2Left #StaticStem #Blueprint] | 0.0446 | 0.0753 | 0.0834 | 0.0861 | 0.0538 | – | – | – | – | –
UCACAUGAGGAUCACCCAUGUGUCAGAGAAGGAGCGGCCGCAAGGCCAGGUAGGUCGCUCAGGUAGCGUGAGGAUCACCCGUGUG [#1 Exclusion - Arginine A Attempt #10 (Inspired by cyborg)] | 0.0236 | 0.118 | 0.213 | 0.141 | 0.117 | – | – | – | – | –
AAUUAGAUGUCGGCCGCCACUGAUGUGUCUGUUGCGUCCAGUGUGUACAUGAGGAUCACCCAUGUCAGGACCGGGACUUUAAAUU [Sodigeedar] | 0.0124 | – | 0.0135 | 0.0123 | – | – | – | – | – | –
AGCACUGUGACGGCCGCCACUACAUAAGUUGGGUGGUCAGGUUCAUUACAUGAGGAUCACCCAUGUAGGACCGGGUCUCAGUGCA [Omei Trp Exc B A v9] | 0.00936 | 0.0112 | 0.0157 | 0.0128 | 0.0103 | – | – | – | – | –
GGGCCUGUAGGCAGGCCCACAGCGGGUGAUACCAGCAAUAAAACUUGCCCUUGGCAGCACACAGCUACAUGAGGAUCACCCAUGU [Ismaorxe] | 0.0449 | – | 0.0993 | – | 0.0697 | – | – | – | – | –
UUUGAGAUAACAGAUACCAGCGUGUUAUAAAACAUGAGGAUCACCCAUGUAGUGAUCAAGCGCCCUUGGCAGCUGGUAUUUUAGG [7.G] | 0.0703 | – | 0.186 | – | 0.146 | – | – | – | – | –
AGAUUAAAGAGUGAUACCAGACUACAUGAGGAUCACCCAUGUUACAUUUGAGUAGCUUUAGUCCCUUGGCAGCACUUUAUGUACA [JR_Nu_ExcTheophyB_Sub023] | 0.0454 | – | 0.0429 | – | 0.0542 | – | – | – | – | –
AGUCUUAUAGGAAGGAGCGCAUACUUCACAUGAGGAUCACCCAUGUCAAGACGUGAGUCAAUGCAGGUAGGUCGCCUAACUAAGA [Same State - Arginine B (Freestyle 12)] | 0.018 | 0.0188 | 0.0204 | 0.0177 | 0.0146 | – | – | – | – | –
CACGAAAGAUCGGCCGCCACUCAUGUUUCUUACAUGAGGAUCACCCAUGUAUUUUCUUUCUUUUAGAGGACCGGGAUUGAGCGUG [SSTB #1] | 0.117 | – | 0.197 | 0.199 | – | – | – | – | – | –
AAAUAGGUAGGAGAUACCAGAUAGGUUAACAUGAGGAUCACCCAUGUGUAUGCACUUAGUGUCCCUUGGCAGCUCCUGGAUCUGG [#19 Same State - Theophylline B] | 0.0333 | 0.0471 | 0.0779 | 0.0632 | 0.0605 | – | – | – | – | –
UUUCAAGUAUCGGCCGCCACUCUAGUUGGUUGUUCAAUCCGAUUACAUGAGGAUCACCCAUGUCUGAGGACCGGGAUAAAGUAAU [theeternabot_sameState_MS2_Trp_B_25] | 0.0204 | – | 0.0325 | 0.0312 | – | – | – | – | – | –
CAUACUUUAGUAUGUUAUGUGGACAGUGAUACCAGAUACGAAAGUAUCCCUUGGCAGCACAACAUGAGGAUCACCCAUGUAAUUU [Theophylline A 5] | 0.0244 | – | 0.0248 | – | 0.0282 | – | – | – | – | –
AUGCUGACAAGGAGGUGUUCCUCAGCUGAUACCAGCCUGGAAACAGGCCCUUGGCAGCAGCACAUGAGGAUCACCCAUGUAAUAA [(T)'-(M)'-(T1)-(T2)-(M1)-(M2)_Design1(Mismatches)] | 0.0565 | 0.027 | 0.517 | 0.0124 | 0.0334 | – | – | – | – | –
GUCGCUGAGAGAAGGAGCGUGAAGACAUGAGGAUCACCCAUGUAGAGGCGCCGAAGGCGUUCGCAGGUAGGUCGCUCUCAGUGAC [#1 Same State - Arginine B Attempt #21 (HarryS)] | 0.0102 | 0.0154 | 0.0192 | 0.0218 | 0.0173 | – | – | – | – | –
UAUCGGCACUGAAGGAGCGAGUUGACAAACAUGAGGAUCACCCAUGUUAUGGGUUGUUAAUCUCAGGUAGGUCGCAGUUGUCGCA [Same State Arginine B GF 19] | 0.221 | 0.334 | 0.403 | 0.576 | 0.5 | – | – | – | – | –
AGAGUUAGACAAAAGUCUAGCUCACCAGAAGGAGCGUCCGAAAGGACAGGUAGGUCGCUGGUACCUGAGGAUCACCCGGGUUCCU [ArgAS 17 #OpenEnded #AlternativeMS2] | 0.134 | 0.282 | 0.172 | 0.244 | 0.0805 | – | – | – | – | –
ACAUGAGGAUCACCCAUGUCUGCCACUGAUACCAGCGGAAGAAAACGCCCUUGGCAGCAGAACAUGAGGAUCACCCAUGUAGGCU [Same State Theophylline A GF29] | 0.0396 | – | 0.166 | – | 0.14 | – | – | – | – | –
UUCAGCUAGUCGGCCGCCACUACUUGAGGAUCACCCAGGUAAUCCUAACACUGCUUCGGCAGUGGUAGGACCGGGACUAGCUGAG | 0.024 | 0.019 | 0.0216 | 0.0245 | 0.103 | – | – | – | – | –

Sequence | apparent KD of MS2 coat protein ([1]; input ligand: arginine 13.2 mM) [µM] | apparent KD of MS2 coat protein ([1]; input ligand: none) [µM] | apparent KD of MS2 coat protein [1, 3] [µM] | apparent KD of MS2 coat protein [1, 4] [µM] | apparent KD of MS2 coat protein [1, 5] [µM] | apparent KD of K4 kissing-loop reporter ([2]; input ligand: FMN 200 uM) [µM] | apparent KD of K4 kissing-loop reporter ([2]; input ligand: arginine 13.2 mM) [µM] | apparent KD of K4 kissing-loop reporter ([2]; input ligand: none) [µM] | apparent KD of K4 kissing-loop reporter [2, 3] [µM] | apparent KD of K4 kissing-loop reporter [2, 5] [µM]
GGGCGUGUGGCGCGGCGUGCUCCGCUCCGUCGAGGACCGGUACGGCCGCCACUCGACAUGAGGAUCACCCAUGUGCGAGCUCGCG [#1 Exclusion - Tryptophan A Attempt #11 (HarryS)] | 0.0176 | 0.0338 | 0.0356 | 0.0446 | 0.154 | – | – | – | – | –
ACGUUUUAGUCGGCCGCCACUGAUCUCAUGUUCAACAUGAGGAUCACCCAUGUACCUUUUUUUAUCAGGACCGGGACGUAAUAGA [JR_SSTryptoB_Sub005] | 0.085 | – | 0.328 | 0.359 | – | – | – | – | – | –
AUAUAUACAUGAGGAUCACCCAUGUUAUUUCGAGGACCGGUACGGCCGCCACUCGAUAGAGUAGAAGUAACAUUUGUUAGAUGAU [JR_SSTryptoA_Sub012] | 0.0239 | – | 0.0252 | 0.0244 | – | – | – | – | – | –
UUCAGCUAGUCGGCCGCCACUACUUGAGGAUCACCCAAGUAGGUCCACACUGCUUCGGCAGUGAGUAGGACCGGGACUAGCUGAG | 0.0137 | 0.0147 | 0.0135 | 0.0115 | 0.0353 | – | – | – | – | –
GCCGCGGCCGCGAUACACAUGGGUGUGUAACGAGGACCGGUACGGCCGCCACUCGAGAUGGUGUACAUGAGGAUCACCCAUGUAC [Exclusion Tryp A GF14] | 0.0105 | 0.0145 | 0.0215 | 0.0174 | 0.0134 | – | – | – | – | –
CCGGAGACCGUGUCAGCGGAAGCAAGAACACGAGGACCGGUACGGCCGCCACUCGAAAGAAGACAUGAGGAUCACCCAUGUCCAU [theeternabot_exclusion_MS2_Trp_A_43] | 0.0105 | – | 0.0151 | 0.0138 | – | – | – | – | – | –
ACAUGAGGAUCACCCAUGUGGCGACUUGAUACCAGACCCGCACUAGUCCCUUGGCAGCAACUACGUGUGGGACACCCAUGUUAAG [lplmullin] | 0.0173 | – | 0.0227 | – | 0.016 | – | – | – | – | –
GGUUCCUCAACGGCCGCCACUUACUGGAUUAGUGGACCUACUUGCAACAUGAGGAUCACCCAUGUAAGGACCGGGUUGCUCCCAA [theeternabot_exclusion_MS2_Trp_B_34] | 0.0469 | – | 0.0901 | 0.0879 | – | – | – | – | – | –
UGUAACAUGAGGAUCACCCAUGUAAGUGAUACCAGAUAAGUAGUAGUCCCUUGGCAGCAUAUUGGGAAAGUGUAUAGUCUAUAUU [Same State - Theophylline A (Freestyle 3)] | 0.0436 | – | 0.0749 | – | 0.0511 | – | – | – | – | –
CUGCCAUGCAGAGAUACCAGUGAGCCCAGAACAUGAGGAUCACCCAUGUACGCCGCAGACCACCCUUGGCAGCUCUGCAUGGCAG [#$@$%] | 0.0127 | 0.0129 | 0.0168 | 0.00675 | 0.0109 | – | – | – | – | –
AAAGAUACCAGAGAUACCAGCCAAAAUUAAAAUAAAACCUCACAUGAGGAUCACCCAUGUGGCCCUUGGCAGCUCCCUUGGCAGC [#DoubbleAptamer 1] | 0.0131 | – | 0.0155 | – | 0.0125 | – | – | – | – | –
AUUUACAUGGUCAUAUAUAUAUCGUCAGAUACCAGACUAGAUAUAGUCCCUUGGCAGCUGUUACAUGAGGAUCACCCAUGUUAUA [JR_Nu_ExcTheophyA_Sub019] | 0.0418 | – | 0.0958 | – | 0.109 | – | – | – | – | –
GCAUUGAGUGAUGUUUAAGCUUAGUCAUCACGAGGACCGGUACGGCCGCCACUCGUGCUUGGAGCGACCGAUACCCUAGAGACCC [theeternabot_sameState_KL_Trp_A_27] | – | – | – | – | – | 0.16 | 0.0625 | 0.0617 | 0.247 | 0.193
AAGGAUCAGAGAGUGAUGUUCUCUAAUAAACGAGGACCGGUACGGCCGCCACUCGAAUAAGAUCCAGUCCUACGAAAAGUAGGAC [Omei inspired 6] | – | – | – | – | – | 0.431 | 0.338 | 0.485 | 0.613 | 0.132
AUUUUAGAGUGAUGUUCUAUUUGAUCAGAUACCAGACAAUUAUAAGUCCCUUGGCAGCUGUAGCCGAUAAAUUUAAUUAAUUUAA [JR_ExcTheophyA_Sub012] | – | – | – | – | – | 0.132 | 0.223 | 0.158 | 0.205 | 0.13
UGGGAUGUUAAAGGAUAUAGAAAGUGAUAUUAGAAAGUGAGUGAUGUUGAUGUAGGUGAUGAUAUGUUAGAAGGUUAACAAAACG [abcde] | – | – | – | – | – | 0.411 | 0.219 | 0.334 | 0.303 | 0.292
UGAUACCAGACGGCCGCCACUAGGACCGGGAGUGAUGUUCCCAAAUUAAAAUACUCGGCCGCCACUAGGACCGGGUCUGGUAUCU [TrypBX 26 #DoubleAptamer #SwitchBubble] | – | – | – | – | – | 0.244 | 0.269 | 0.295 | 0.36 | 0.113
CUUCGAUUAACAGAUACCAGUCAUACUGGAGCCUCACUCGAGUGAGUGAUGUUCACUUGAGACCCUUGGCAGCUGUUAGUCGAAG [Theo B Ex t1a] | – | – | – | – | – | 0.0923 | 0.0862 | 0.0896 | 0.106 | 0.0934
